From publication PMC10415141 (Nucleic Acids Research, 2023) come the findings set out here.

The target of this experiment is T1, human MCM8 (HsMCM8), wild type, N-terminal StrepII tag and TEV site (human, UniProt Q9UJA3 1-840).
T1 sequence (looked up): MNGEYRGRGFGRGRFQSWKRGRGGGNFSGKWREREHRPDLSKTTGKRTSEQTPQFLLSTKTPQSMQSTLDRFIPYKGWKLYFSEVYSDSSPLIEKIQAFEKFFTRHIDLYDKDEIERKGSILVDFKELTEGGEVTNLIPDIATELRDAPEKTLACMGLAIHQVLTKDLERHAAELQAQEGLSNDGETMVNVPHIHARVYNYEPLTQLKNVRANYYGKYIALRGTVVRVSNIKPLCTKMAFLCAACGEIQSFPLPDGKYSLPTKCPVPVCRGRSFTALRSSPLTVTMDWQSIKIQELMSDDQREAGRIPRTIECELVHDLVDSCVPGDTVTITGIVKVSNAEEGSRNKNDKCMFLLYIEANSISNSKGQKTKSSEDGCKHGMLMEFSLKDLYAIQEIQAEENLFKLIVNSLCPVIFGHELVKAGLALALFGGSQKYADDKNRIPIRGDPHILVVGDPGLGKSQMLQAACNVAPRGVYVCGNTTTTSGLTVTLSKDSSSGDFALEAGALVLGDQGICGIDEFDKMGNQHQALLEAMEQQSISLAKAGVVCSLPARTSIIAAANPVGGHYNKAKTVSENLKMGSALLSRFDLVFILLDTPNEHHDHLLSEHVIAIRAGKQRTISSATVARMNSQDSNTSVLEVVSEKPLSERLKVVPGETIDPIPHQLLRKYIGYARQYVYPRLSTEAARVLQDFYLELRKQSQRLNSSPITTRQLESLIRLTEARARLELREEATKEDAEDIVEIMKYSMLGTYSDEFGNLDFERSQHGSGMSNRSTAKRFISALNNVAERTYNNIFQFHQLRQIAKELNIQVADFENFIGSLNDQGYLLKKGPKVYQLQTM
As to the kind of experiment: SEC. For orientation: SEC sorts molecules by how far they enter the pores of the column.

Usually stoichiometry N stands for the number of molecules, sites or subunits per partner or assembly.

B1: human MCM9 truncated to the first 680 amino acids (MCM9^680), wild type, N-terminal 6xHis tag (domain or fragment)
chain: not shown
As for B1, the “stoichiometry N” value was determined as 1.
